Data taken from PMC6139572, “Structural and functional effects of myosin-binding protein-C phosphorylation in heart muscle are not mimicked by serine-to-aspartate substitutions” (The Journal of Biological Chemistry, 2018).
Each block holds one binder with its values, some of them ahead of it.

How the values were obtained:
Conditions in all cases: both partners purified
[1] = target: T1, myosin S2Δ, the first 126 amino acids of myosin sub-fragment 2 (rat heart) (rat, Alexa 647 (labelled with Alexa 647–NHS, efficiency of ~80%)); experiment: MST; as a2 (pH 7, 50 mmol/liter KCl); 30 °C
T1 construct: cardiac myosin heavy chain cloned from a rat heart cDNA library; the first 126 amino acids of myosin S2; also called Alexa 647–myosin S2Δ; source: E. coli BL21(DE3)-RIPL, purified (HisTrapFF, TEV, Mono Q); not shown: His6, N-terminal, cleaved

[2] = target: isolated native thin filaments (UniProt P68032 1-377); experiment: co-sedimentation; high-velocity co-sedimentation of C1mC2 constructs with isolated native thin filaments; performed as described in ref. 15
[3] = target: T1, myosin S2Δ, the first 126 amino acids …; experiment: MST; isolated m-motif titrated against 100 nmol/liter Alexa 647–myosin S2Δ; MST buffer adjusted to pH 6.2, enhanced gradient standard capillaries; 50 mmol/liter KCl; 30 °C

Kd [1]: 477 µM
B1: C1–C2, construct containing Ig domains C1 and C2 of rat cardiac myosin-binding protein-C connected by a flexible linker, with the m-motif deleted (domain or fragment)
chain: PIGLFLMRPQDGEVTVGGSIVFSARVAGASLLKPPVVKWFKGKWVDLSSKVGQHLQLHDSYDRASKVYLFELHITDAQATSAGGYRCEVSTKDKFDSCNFNLTKKSTAFQKKLEPAYQVNKGHKIRLTVELADPDAEVKWLKNGQEIQMSGRYIFESIGAKRTLTISQCSLADDAAYQCVVGGEKCSTELFVKEP

Kd [2]: 16 µM
B2: C1mC2 of rat cardiac myosin-binding protein-C with three phosphorylatable serines mutated to aspartate (domain or fragment)
chain: PIGLFLMRPQDGEVTVGGSIVFSARVAGASLLKPPVVKWFKGKWVDLSSKVGQHLQLHDSYDRASKVYLFELHITDAQATSAGGYRCEVSTKDKFDSCNFNLTVHEAIGSGDLDLRSAFRRTDLAGTGRRTDDSHEDAGTLDFSSLLKKSDFRRDSKLEAPAEEDVWEILRQAPPSEYERIAFQHGVTDLRGMLKRLKGMKHDEKKSTAFQKKLEPAYQVNKGHKIRLTVELADPDAEVKWLKNGQEIQMSGRYIFESIGAKRTLTISQCSLADDAAYQCVVGGEKCSTELFVKEP

Kd [3]: 41.1 µM
B3: isolated m-motif of rat cardiac myosin-binding protein-C (domain or fragment)
chain: VHEAIGSGDLDLRSAFRRTSLAGTGRRTSDSHEDAGTLDFSSLLKKSSFRRDSKLEAPAEEDVWEILRQAPPSEYERIAFQHGVTDLRGMLKRLKGMKHDE
